In general, stoichiometry N refers to a count of units in the complex or per binding partner.

The series concerns the molecule itself. Nature of the series: dynamic light scattering; after irradiation of the N2O-saturated solution with 0.1 M NaN3 (oxidation by N3 radicals), 70 μM protein, 25 °C; the species seen are held by covalent bonds (dityrosine).

B1: papain (enzyme, UniProt P00784 134-345, looked up)
chain: IPEYVDWRQKGAVTPVKNQGSCGSCWAFSAVVTIEGIIKIRTGNLNEYSEQELLDCDRRSYGCNGGYPWSALQLVAQYGIHYRNTYPYEGVQRYCRSREKGPYAAKTDGVRQVQPYNEGALLYSIANQPVSVVLEAAGKDFQLYRGGIFVGPCGNKVDHAVAAVGYGPNYILIKNSWGTGWGENGYIRIKRGTGNSYGVCGLYTSSFYPVKN
notes: papain; source: bought: Roth (8933.1), used as received
Turning to B1, the “stoichiometry N” value amounted to 2.
